Test results taken from patent US20030049699A1 (published 2003).

B1: TA-C-mbp1 (C-terminal part of murine MBP1 fused with the transcription activating domain of Gal4) (other, not shown: large carriers)
chain: CTCPDGYRKIGPECVDIDECRYRYCQHRCVNLPGSFRCQCEPGFQLGPNNRSCVDVNECDMGAPCEQRCFNSYGTFLCRCNQGYELHRDGFSCSDIDECGYSSYLCQYRCVNEPGRFSCHCPQGYQLLATRLCQDIDECETGAHQCSEAQTCVNFHGGYRCVDTNRCVEPYVQVSDNRCLCPASNPLCREQPSSIVHRYMSITSERSVPADVFQIQATSVYPGAYNAFQIRSGNTQGDFYIRQINNVSAMLVLARPVTGPREYVLDLEMVTMNSLMSYRASSVLRLTVFVGAYTF
notes: Library clone from mouse embryo cDNA library pPC67; also called product of plasmid TA-C-MBP1
B2: DB-Fos (fusion protein between the DNA-binding domain of the Gal4 protein and a fragment of the human Fos protein, amino acids 132 to 211) (other, S. cerevisiae;human, UniProt P04386 1-147, looked up)
chain: MKLLSSIEQACDICRLKKLKCSKEKPKCAKCLKNNWECRYSPKTKRSPLTRAHLTEVESRLERLEQLFLLIFPREDLDMILKMDSLQDIKALLTGLFVQDNVNKDAVTDRLASVETDMPLTLRQHRISATSSSEESSNKGQRQLTVSLSPEEEEKRRIRRERNKMAAAKCRNRRRELTDTLQAETDQLEDEKSALQTEIANLLKEKEKLEFILAAHRPACKIPDDLG
notes: Control fusion in the yeast two-hybrid test; also called DE-Fos; pPC76 product
B3: TA (transcription activating domain of Gal4 alone, plasmid pPC86) (other, S. cerevisiae, UniProt P04386 768-881, looked up)
chain: ANFNQSGNIADSSLSFTFTNSSNGPNLITTQTNSQALSQPIASSNVHDNFMNNEITASKIDDGNNSKPLSPGWTDQTAYNAFGITTGMFNTTTMDDVYNYLFDDEDTPPNPKKE
notes: Empty-vector control of the two-hybrid tests
B4: TA-C-fibulin2 (C-terminal part of murine fibulin 2, amino acids 863 to 1195, fused with the transcription activating domain of Gal4) (other, not shown: large carriers)
chain: EGSECVDVNECETGVHRCGEGQLCYNLPGSYRCDCKPGFQRDAFGRTCIDVNECWVSPGRLCQHTCENTPGSYRCSCAAGFLLAADGKHCEDVNECETRRCSQECANIYGSYQCYCRQGYQLAEDGHTCTDIDECAQGAGILCTFRCVNVPGSYQCACPEQGYTMMANGRSCKDLDECALGTHNCSEAETCHNIQGSFRCLRFDCPPNYVRVSQTKCERTTCQDITECQTSPARITHYQLNFQTGLLVPAHIFRIGPAPAFAGDTISLTITKGNEEGYFVTRRLNAYTGVVSLQRSVLEPRDFALDVEMKLWRQGSVTTFLAKMYIFFTTFAP
notes: also called product of plasmid TA-C-FIB2

Key:
[1] = target: T1, DB-wt (fragment 73-393 of wild-type human p53 fused with the DNA-binding domain of Gal4) (S. cerevisiae; human, UniProt P04386 1-147; P04637 73-393); assay: yeast two-hybrid, strain YCM17, URA3 and LacZ reporters
T1 construct: Yeast two-hybrid fusion; also called 73-393 wt in pPC97
Description: (§1) After the cotransformation, the various clones obtained were tested for the phenotypes associated with the URA3 and LacZ genes.

[2] = target: B1; assay: as above
Description: as §1

[3] = target: B4; assay: as above
Description: as §1

[4] = target: T2, DB-C-mbp1 (C-mbp1 fused with the DNA-binding domain of Gal4) (S. cerevisiae; murine, UniProt P04386 1-147); assay: yeast two-hybrid, strain PCY2, LacZ reporter
T2 construct: also called DB-C-mbpl; product of plasmid DB-C-MBP1

[5] = target: T3, DB-C-fibulin2 (C-fibulin2 fused with the DNA-binding domain of Gal4) (S. cerevisiae; murine, UniProt P04386 1-147, limits assumed); assay: yeast two-hybrid, strain PCY2, LacZ reporter
T3 construct: also called product of plasmid DB-C-FIB2

[6] = target: B2; assay: yeast two-hybrid, strain YCM17, URA3 and LacZ reporters
Description: as §1

[7] = target: T4, DB protein (DNA-binding domain of Gal4 alone, plasmid pPC97) (S. cerevisiae, UniProt P04386 1-147); assay: as above
T4 construct: Empty-vector control of the two-hybrid tests
Description: as §1

B1
binding result [1]: no binding

B2
binding result [2]: no binding | binding result [3]: no binding

B3
binding result [4]: no binding | binding result [5]: no binding | binding result [1]: no binding | binding result [6]: no binding | binding result [7]: no binding

B4
binding result [1]: no binding
